Measured values reported in patent US20120009181A1.

Biological target: human folate receptor 1 (FOLR1) (human)

EC50 of ADCC activity on IGROV-1 cells: 0.16 ng/mL
Substance: MorAb-003 (Farletuzumab) (antibody)
